Measurements reported in the supplement of paper PMC10567573.

B1: KLHL14 (parent)
chain: CAVLDDSIYLVGGYSWSMGAYKSS

Variants of: B1
Test: protein stability index of a GFP-peptide fusion (GPS, HEK-293T) (PSI 1-6); higher = more stable
Conditions: c terminus: a fixed tail appended
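Also: lentivirally expressed fusions sorted by FACS into six bins by GFP to DsRed ratio, PSI derived from sequencing read proportions per bin multiplied by bin number.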

Row | Variant | protein stability index
1 | CAVLDDSIYLVGSYSWSMGAYKSS | 1.95
2 | CAVLDDSIYLVGIYSWSMGAYKSS | 2.92
3 | CAVLDDSIYLVGQYSWSMGAYKSS | 2.49
4 | CAVLDDSIYLVGAYSWSMGAYKSS | 3.61
5 | CAVLDDSIYLVGWYSWSMGAYKSS | 3.56
6 | CAVLDDSIYLVGYYSWSMGAYKSS | 1.73
7 | CAVLDDSIYLVGKYSWSMGAYKSS | 1.51
8 | CAVLDDSIYLVGRYSWSMGAYKSS | 2.08
9 | CAVLDDSIYLVGTYSWSMGAYKSS | 3.26
10 | CAVLDDSIYLVGMYSWSMGAYKSS | 3.5
11 | CAVLDDSIYLVGGYSWSMGAYMSS | 4.12
12 | CAVLDDSIYLVGGYSWSMGAYPSS | 1.79
13 | CAVLDDSIYLVGGYSWSMGAYASS | 3.59
14 | CAVLDDSIYLVGGYSWSMGAYDSS | 3.84
15 | CAVLDDSIYLVGGYSWSMGAYRSS | 3.14
16 | CAVKDDSIYLVGGYSWSMGAYKSS | 2.18
17 | CAVTDDSIYLVGGYSWSMGAYKSS | 2.78
18 | CAVDDDSIYLVGGYSWSMGAYKSS | 2.19
19 | CAVIDDSIYLVGGYSWSMGAYKSS | 2.15
20 | CAVHDDSIYLVGGYSWSMGAYKSS | 2.12
21 | CAVPDDSIYLVGGYSWSMGAYKSS | 1.74
22 | CAVSDDSIYLVGGYSWSMGAYKSS | 1.49
23 | CAVADDSIYLVGGYSWSMGAYKSS | 1.36
24 | CADLDDSIYLVGGYSWSMGAYKSS | 1.57

Row | Variant | protein stability index
25 | CARLDDSIYLVGGYSWSMGAYKSS | 2.4
26 | CAMLDDSIYLVGGYSWSMGAYKSS | 2.9
27 | CAFLDDSIYLVGGYSWSMGAYKSS | 2.85
28 | CAWLDDSIYLVGGYSWSMGAYKSS | 2.71
29 | CASLDDSIYLVGGYSWSMGAYKSS | 2.3
30 | CATLDDSIYLVGGYSWSMGAYKSS | 2.94
31 | CAVLDDSIYLVGGYNWSMGAYKSS | 2.28
32 | CAVLDDSIYLVGGYEWSMGAYKSS | 1.03
33 | CAVLDDSIYLVGGYTWSMGAYKSS | 2.38
34 | CAVLDDSIYLVGGYVWSMGAYKSS | 3.31
35 | CAVLDDSIYLVGGYDWSMGAYKSS | 2.34
36 | CAVLDDSIYLVGGYHWSMGAYKSS | 1.65
37 | CAVLDDSIYLVGGYWWSMGAYKSS | 2.25
38 | CAVLDDSIYLVGGYRWSMGAYKSS | 1.86
39 | CAVLDDSIYLVGGYKWSMGAYKSS | 2.83
40 | CAVLDDSIYLVGGYGWSMGAYKSS | 2.88
41 | CHVLDDSIYLVGGYSWSMGAYKSS | 1.85
42 | CPVLDDSIYLVGGYSWSMGAYKSS | 1.61
43 | CGVLDDSIYLVGGYSWSMGAYKSS | 1.04
44 | CQVLDDSIYLVGGYSWSMGAYKSS | 1.93
45 | CNVLDDSIYLVGGYSWSMGAYKSS | 2.05
46 | CDVLDDSIYLVGGYSWSMGAYKSS | 1.04
47 | CFVLDDSIYLVGGYSWSMGAYKSS | 2.84
48 | CKVLDDSIYLVGGYSWSMGAYKSS | 2.85

Row | Variant | protein stability index
49 | CAVLDDSIYPVGGYSWSMGAYKSS | 1.1
50 | CAVLDDSIYNVGGYSWSMGAYKSS | 1.98
51 | CAVLDDSIYWVGGYSWSMGAYKSS | 3.36
52 | CAVLDDSIYCVGGYSWSMGAYKSS | 3.76
53 | CAVLDDSIYLGGGYSWSMGAYKSS | 1.93
54 | CAVLDDSIYLYGGYSWSMGAYKSS | 2.44
55 | CAVLDDSIYLQGGYSWSMGAYKSS | 1.79
56 | CAVLDDSIYLLGGYSWSMGAYKSS | 1.72
57 | CAVLDDSIYLFGGYSWSMGAYKSS | 1.6
58 | CAVLDDSIYLWGGYSWSMGAYKSS | 1.7
59 | CAVLDDSIYLRGGYSWSMGAYKSS | 1.24
60 | CAVLDDSIYLKGGYSWSMGAYKSS | 2.1
61 | CAVLDDSIYLAGGYSWSMGAYKSS | 1.94
62 | CAVLDDSIYLMGGYSWSMGAYKSS | 3.05
63 | CAVLDDSIYLDGGYSWSMGAYKSS | 1.94
64 | CAVLDDSIYLSGGYSWSMGAYKSS | 2.21
65 | CAVLDDSIYLHGGYSWSMGAYKSS | 1.88
66 | CAVLDDSIYLVGGYSWSMGATKSS | 1.24
67 | CAVLDDSIYLVGGYSWSMGAHKSS | 2.64
68 | CAVLDDSIYLVGGYSWSMGARKSS | 2.45
69 | CAVLDDSIYLVGGYSWSMGASKSS | 2
70 | CAVLDDSIYLVGGYSWSMGAQKSS | 2.35
71 | CAVLDDSIYLVGGYSWSMGAFKSS | 3.42
72 | CAVLDDSIYLVGGYSWSMGAGKSS | 1.08

Row | Variant | protein stability index
73 | CAVLDDSIYLVGGYSWSMGADKSS | 2.43
74 | CAVLDDSIYLVGGYSWSMGALKSS | 2.68
75 | CAVLDKSIYLVGGYSWSMGAYKSS | 1.35
76 | CAVLDISIYLVGGYSWSMGAYKSS | 3.34
77 | CAVLDMSIYLVGGYSWSMGAYKSS | 4.25
78 | CAVLDRSIYLVGGYSWSMGAYKSS | 3.76
79 | CAVLDDSIILVGGYSWSMGAYKSS | 1.86
80 | CAVLDDSITLVGGYSWSMGAYKSS | 2.18
81 | CAVLDDSIWLVGGYSWSMGAYKSS | 2.43
82 | CAVLDDSIRLVGGYSWSMGAYKSS | 3.35
83 | CAVLDDSIPLVGGYSWSMGAYKSS | 2.22
84 | CAVLDDSIDLVGGYSWSMGAYKSS | 2.37
85 | CAVLDDSIELVGGYSWSMGAYKSS | 2.28
86 | CAVLDDSILLVGGYSWSMGAYKSS | 3.26
87 | CAVLDDSIYLVGGYSWSMGAYKCS | 2.2
88 | CAVLDDSIYLVGGYSWSMGAYKMS | 2.48
89 | CAVLDDSIYLVGGYSWSMGAYKGS | 1
90 | CAVLDDSIYLVGGYSWSMGAYKDS | 1.96
91 | CAVLDDSIYLVGGYSWSMGAYKPS | 1.58
92 | CAVLDDSIYLVGGYSWSMGAYKQS | 2.73
93 | CAVLDDSIYLVGGYSWSMGAYKKS | 2.43
94 | CAVLDDSIYLVGGYSWSMGAYKSA | 4.41
95 | CAVLDDSIYLVGGYSWSMGAYKST | 3.12
96 | CAVLDDSIYLVGGYSWSMGAYKSC | 2.32

Row | Variant | protein stability index
97 | CAVLDDQIYLVGGYSWSMGAYKSS | 3.47
98 | CAVLDDHIYLVGGYSWSMGAYKSS | 2.24
99 | CAVLDDPIYLVGGYSWSMGAYKSS | 2.54
100 | CAVLDDNIYLVGGYSWSMGAYKSS | 2.59
101 | CAVLDDAIYLVGGYSWSMGAYKSS | 2.04
102 | CAVLDDVIYLVGGYSWSMGAYKSS | 2.46
103 | CAVLDDYIYLVGGYSWSMGAYKSS | 3.75
104 | CAVLDDLIYLVGGYSWSMGAYKSS | 3.32
105 | CAVLDDMIYLVGGYSWSMGAYKSS | 2.99
106 | CAVLDDSIYLVGGSSWSMGAYKSS | 1.83
107 | CAVLDDSIYLVGGASWSMGAYKSS | 1.55
108 | CAVLDDSIYLVGGNSWSMGAYKSS | 1.53
109 | CAVLDDSIYLVGGRSWSMGAYKSS | 1.74
110 | CAVLDDSIYLVGGMSWSMGAYKSS | 2.42
111 | CAVLDDSIYLVGGYSWEMGAYKSS | 2.25
112 | CAVLDDSIYLVGGYSWDMGAYKSS | 1.52
113 | CAVLDDSIYLVGGYSWKMGAYKSS | 2.48
114 | CAVLDDSIYLVGGYSWGMGAYKSS | 2.69
115 | CAVLDDSIYLVGGYSWPMGAYKSS | 1.54
116 | CAVLDDSIYLVGGYSWWMGAYKSS | 3.53
117 | CAVLDDSIYLVGGYSTSMGAYKSS | 1.74
118 | CAVLDDSIYLVGGYSSSMGAYKSS | 2.01
119 | CAVLDDSIYLVGGYSISMGAYKSS | 2.35
120 | CAVLDDSIYLVGGYSMSMGAYKSS | 3.09

Row | Variant | protein stability index
121 | CAVLDDSIYLVGGYSHSMGAYKSS | 1.79
122 | CAVLDDSIYLVGGYSFSMGAYKSS | 2.87
123 | CAVLDDSIYLVGGYSDSMGAYKSS | 2.14
124 | CAVLDDSIYLVGGYSVSMGAYKSS | 1.03
125 | CAVLDDSIYLVGGYSWSMWAYKSS | 3.29
126 | CAVLDDSIYLVGGYSWSMTAYKSS | 2.01
127 | CAVLDDSIYLVGGYSWSMPAYKSS | 1.96
128 | CAVLDDSIYLVGGYSWSMAAYKSS | 2.33
129 | CAVLDDSIYLVGGYSWSMLAYKSS | 3.64
130 | CAVLDDSIYLVGGYSWSMYAYKSS | 3.83
131 | CAVLDDSIYLVGGYSWSMRAYKSS | 2.98
132 | CAVLDDSIYLVGGYSWSMVAYKSS | 1.97
133 | CAVLDDSIYLVGGYSWSMNAYKSS | 2.06
134 | CAVLDDSIYLVGGYSWSMIAYKSS | 2.9
135 | CAVLDDSIYLVGGYSWSMKAYKSS | 2.23
136 | CAVLDDSIYLVGGYSWSMFAYKSS | 3.41
137 | CAVLIDSIYLVGGYSWSMGAYKSS | 2.19
138 | CAVLSDSIYLVGGYSWSMGAYKSS | 2
139 | CAVLEDSIYLVGGYSWSMGAYKSS | 2.7
140 | CAVLKDSIYLVGGYSWSMGAYKSS | 3.02
141 | CAVLFDSIYLVGGYSWSMGAYKSS | 3.77
142 | CAVLYDSIYLVGGYSWSMGAYKSS | 1.54
143 | CAVLDDSIYLVVGYSWSMGAYKSS | 2.65
144 | CAVLDDSIYLVCGYSWSMGAYKSS | 3.07

Row | Variant | protein stability index
145 | CAVLDDSIYLVAGYSWSMGAYKSS | 3.1
146 | CAVLDDSIYLVHGYSWSMGAYKSS | 2.92
147 | CAVLDDSIYLVDGYSWSMGAYKSS | 2.39
148 | CAVLDDSIYLVIGYSWSMGAYKSS | 2.47
149 | CAVLDDSIYLVFGYSWSMGAYKSS | 2.23
150 | CAVLDDSIYLVPGYSWSMGAYKSS | 2.79
151 | CAVLDDSIYLVQGYSWSMGAYKSS | 2.89
152 | CAVLDDSIYLVSGYSWSMGAYKSS | 1.46
153 | CAVLDDSMYLVGGYSWSMGAYKSS | 2.62
154 | CAVLDDSPYLVGGYSWSMGAYKSS | 1.93
155 | CAVLDDSHYLVGGYSWSMGAYKSS | 1.93
156 | CAVLDDSKYLVGGYSWSMGAYKSS | 1.77
157 | CAVLDDSSYLVGGYSWSMGAYKSS | 1.73
158 | CAVLDDSCYLVGGYSWSMGAYKSS | 3.23
159 | CAVLDDSQYLVGGYSWSMGAYKSS | 1.11
160 | CAVLDDSNYLVGGYSWSMGAYKSS | 1.65
161 | CAVLDDSFYLVGGYSWSMGAYKSS | 2.55
162 | CAVLDDSEYLVGGYSWSMGAYKSS | 1.13
163 | CAVLDDSIYLVGGYSWSIGAYKSS | 3.21
164 | CAVLDDSIYLVGGYSWSGGAYKSS | 1.68
165 | CAVLDDSIYLVGGYSWSQGAYKSS | 2.67
166 | CAVLDDSIYLVGGYSWSKGAYKSS | 1.91
167 | CAVLDDSIYLVGGYSWSAGAYKSS | 2.89
168 | CAVLDDSIYLVGGYSWSCGAYKSS | 2.26

Row | Variant | protein stability index
169 | CAVLDDSIYLVGGYSWSEGAYKSS | 2.53
170 | CAVLDDSIYLVGGYSWSNGAYKSS | 1.46
171 | KAVLDDSIYLVGGYSWSMGAYKSS | 2.42
172 | MAVLDDSIYLVGGYSWSMGAYKSS | 1.5
173 | NAVLDDSIYLVGGYSWSMGAYKSS | 1.74
174 | TAVLDDSIYLVGGYSWSMGAYKSS | 1.43
175 | AAVLDDSIYLVGGYSWSMGAYKSS | 1.72
176 | SAVLDDSIYLVGGYSWSMGAYKSS | 1.7
177 | HAVLDDSIYLVGGYSWSMGAYKSS | 1.74
178 | GAVLDDSIYLVGGYSWSMGAYKSS | 2
179 | WAVLDDSIYLVGGYSWSMGAYKSS | 2.63
180 | PAVLDDSIYLVGGYSWSMGAYKSS | 2.28
181 | CAVLDDSIYLVGGYSWSMGRYKSS | 1.74
182 | CAVLDDSIYLVGGYSWSMGKYKSS | 1.11
183 | CAVLDDSIYLVGGYSWSMGHYKSS | 2.31
184 | CAVLDDSIYLVGGYSWSMGFYKSS | 2.88
185 | CAVLDDSIYLVGGYSWSMGVYKSS | 2.02
186 | CAVLDDSIYLVGGYSWSMGQYKSS | 3.05
187 | CAVLDDSIYLVGGYSWSMGTYKSS | 3.02
188 | CAVLDDSIYLVGGYSWSMGCYKSS | 2.64
